Where two headings read alike, the source gives them in different places.
Legend:
RIG-I [1] = target: T1, RIG-I (human, UniProt O95786 1-925); experiment: EMSA
T1 sequence: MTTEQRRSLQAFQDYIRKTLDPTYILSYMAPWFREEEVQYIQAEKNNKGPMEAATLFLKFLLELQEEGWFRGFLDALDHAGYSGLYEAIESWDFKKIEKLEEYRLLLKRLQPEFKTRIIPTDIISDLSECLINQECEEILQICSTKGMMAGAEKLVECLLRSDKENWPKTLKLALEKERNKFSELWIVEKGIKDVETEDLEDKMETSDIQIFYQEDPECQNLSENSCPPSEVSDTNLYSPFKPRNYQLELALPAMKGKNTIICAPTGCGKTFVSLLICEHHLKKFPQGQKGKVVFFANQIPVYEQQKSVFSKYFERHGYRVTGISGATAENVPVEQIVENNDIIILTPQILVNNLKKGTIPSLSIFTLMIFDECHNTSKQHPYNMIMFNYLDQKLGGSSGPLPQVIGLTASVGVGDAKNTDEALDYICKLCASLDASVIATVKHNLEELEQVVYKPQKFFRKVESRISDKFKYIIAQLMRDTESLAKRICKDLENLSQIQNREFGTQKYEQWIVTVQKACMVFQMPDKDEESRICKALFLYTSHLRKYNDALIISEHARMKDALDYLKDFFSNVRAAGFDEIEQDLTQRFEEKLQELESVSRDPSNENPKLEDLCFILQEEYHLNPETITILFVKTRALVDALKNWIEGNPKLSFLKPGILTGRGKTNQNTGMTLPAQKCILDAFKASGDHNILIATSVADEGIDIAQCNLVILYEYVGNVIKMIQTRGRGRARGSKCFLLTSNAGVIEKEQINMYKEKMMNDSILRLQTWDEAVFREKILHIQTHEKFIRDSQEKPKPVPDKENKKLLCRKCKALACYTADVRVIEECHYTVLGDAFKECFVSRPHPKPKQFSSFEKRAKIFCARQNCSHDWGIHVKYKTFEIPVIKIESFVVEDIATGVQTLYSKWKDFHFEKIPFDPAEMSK

RIG-I [2] = target: T1, RIG-I; experiment: EMSA; remark: listed apart in the source

B1: 47R/25RI (dsRNA)
RNA 1: GGAAAAUGUAAAUGACAUAGGCGCGCUGAAAGGGAGAAGUGAAAGUG
RNA 2: CGCGCCUAUGUCAUUUACAUUUUCC
modifications: 5'-OH
RIG-I [1]
  binding result: binds

B2: 3P-47R/25DI (DNA:RNA)
RNA: B1 RNA 1
DNA: CACTTTCACTTCTCCCTTTCAGCGC
modifications: 5'-triphosphate (on 47R, implied by name)
RIG-I [2]
  binding result: binds

B3: 3P-47R/25RI (dsRNA)
RNA 1: B1 RNA 1
RNA 2: CGCGCCUAUGUCAUUUACAUUUUCC
modifications: 5'-triphosphate (on 47R, implied by name)
RIG-I [2]
  binding result: binds

Reference: publication PMC5002451
